Assay results reported in the Immune Epitope Database (IEDB).

What follows are sequences tested against HLA-A*02:06 (assay: IEDB peptide-MHC binding, purified MHC/competitive/radioactivity; ≥ and ≤ were set here for values at or beyond the usual limits of such assays). Details: source organism: Influenza A virus.

Sequence | IC50 [µM]
NMLSTVLGV | 0.071

What follows are sequences tested against HLA-A*02:03 in the same assay as above. Details: source organism: Influenza A virus.

Sequence | IC50 [µM]
NMLSTVLGV | 0.01

Each sequence was assayed against HLA-A*02:01 in the same assay as above. Details: source organism: Vaccinia virus WR.

Sequence | IC50 [µM]
MLYQLLEAV | 0.0082

Each sequence was assayed against HLA-A*02:01 (assay: IEDB peptide-MHC binding, cellular MHC/competitive/fluorescence; ≥ and ≤ were set here for values at or beyond the usual limits of such assays). Details: source organism: Influenza A virus.

Sequence | IC50 [µM]
ITFMQALQLL | 7.71

Same assay, conditions: source organism: Mammarenavirus brazilense

Sequence | IC50 [µM]
AINIALIAV | 8.3

Same assay, conditions: source organism: Mammarenavirus machupoense

Sequence | IC50 [µM]
SVVQALTSL | 9.24

Same assay, conditions: source organism: Vaccinia virus WR

Sequence | IC50 [µM]
MLYQLLEAV | 14.9
NIVWEKKSL | 10.9
AVCNLASVA | 17.8
NIKNDVVIL | ≥ 70
ITTMDGDKL | 15
GIVLSNTST | 20.2
YVSTGESSI | 11.4
GATLYRFKHI | ≥ 70
EVRKYFCVKT | 23.2
DLAFLIKFIT | 6.32
LAGYILTVL | 11.6
SVFAASKQQM | ≥ 70
QQHPIVVLDA | 14.5
QQKKCKYCI | 38.8
PTASSDSLQT | 16.7
WTVYLIKLI | 7.52
TAASPMLYQL | ≥ 70
STLPNKSDV | ≥ 70
GIKEDETVST | 41.7
PIYYVQKQLV | 18.7
AIMFKDDNII | 43.8
VALTIMGVI | 8.94
ILANRDSTL | 11
TTDNKITSI | 11.5

Sequence | IC50 [µM]
ILKPRIDKTM | 49.3
IQESFIRFT | 36.2
TASGGKVLIT | ≥ 70
LTNVVNISTI | ≥ 70
DISMSLYKDL | 9.88
TMPTYKHLI | 27.3
TTSDYQDSDV | 11.9
SIPLMKRLT | ≥ 70
ALSDACKKIL | 17.9
TIDGVSKKNI | ≥ 70
EVVVFGEAV | 13.4
GVIFLISVI | 12.1
NAECQPLQL | 14.3
IAHLLEHLLI | 15.7
LAIDFGNGA | 46.6
LVTKYPMDNV | 12.9
SVNKFKFGAA | ≥ 70
IVGLDLENL | 14.2
SISIKLTDSL | 6.24
TVSTIDGRI | ≥ 70
ELTTLSRHI | 18.6
DAFSREYSMT | ≥ 70
ELMPIRTDT | ≥ 70
KQDIVGLDL | 14.2

Sequence | IC50 [µM]
GIVLSNTSTA | 13.1
IIPSSIPVST | 17.1
DLFPKQTIQT | 12.9
SILRSIEGEL | 5.85
TACNNTIII | 11.3
QQPIKKDCMV | 18.5
VIFLISVIV | 13.6
NIIMKTPGNT | 8.14
FTVTNKEGV | 10.3
PTINKSIYII | 6.11
AQSKSSLLHA | 32.9
DANVVSSST | 7.63
IVLSNTSTA | 16.9
RTDTTICLSI | 11
LVIVSDGPPT | ≥ 70
LTTLSRHIFM | 5.83
ITFALKKLI | ≥ 70
IVDDDFISA | 11.5
LTAVEHIPTM | 7.83
LLVATDPDA | 17.4
PINAPIKTFM | 7.62
DINSDNSNI | 24.8
LIAFSSGTVI | 7.63
ILYKVRKNFT | 7.65

Sequence | IC50 [µM]
DALAKNASEL | 61.8
DVEDLLSYYV | 5.16
KTKYYKFDYI | 51.5
VVSSSTIAT | 11
PTLDNILGI | 6.67
DIVSKLTFL | 7.81
MTPENDEEQT | ≥ 70
EVSYFTNKRT | 66.1
RLSLNRTIVT | 8.65
KIKVTAASPM | ≥ 70
KIKHKGMSFV | 15.8
VISPMGKLT | 8.49
SVEPYTSNI | 17.3
TISMLIEVIL | ≥ 70
ELFIKALSDA | 10.9
ELDTLAAEI | 9.53
VVYNPSTMST | 57.8
TAVEHIPTM | 15.9
DILANRDSTL | 34.5
TLPNKSDVLI | 5.32
SMRLLHCVT | ≥ 70
STAVNEEWLT | 25.4
WLTAVEHIPT | 6.96
QQALSSFHTT | 29.1

Sequence | IC50 [µM]
GTLDFFKQT | 49.5
VMETDRENA | 8.08
DQSIKIGDI | ≥ 70
FINDRMKKDI | ≥ 70
LISMYCSKT | 12.5
GASYISCTA | 7.35
DMPSLSNGLI | 43
MVISLLSMIT | 9.75
PIVISKALET | 26.8
IIKKNDIVRV | 48.4
IVALTIMGVI | 5.77
VTLNASQYA | 5.01
QMNARGVKV | 5.14
VTLNAGNIDI | 12.9
NAKLTSTET | 8.67
DANVVSSSTI | ≥ 70
EVFNREYNNV | 13.2
VVRRTMLSDI | 8.52
IQKSSSIDV | 15.9
DTFVSSVREV | 5.08
VAPMPTASTA | 25
STPMTEYII | ≥ 70
